Experimental data as given in the supplement of paper PMC10567573.

B1: BCL2L13 (parent)
chain: YIIQQGGWGTVFSLESEEEEYPGI
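Note: lentivirally expressed fusions sorted by FACS into six bins by GFP to DsRed ratio, PSI derived from sequencing read proportions per bin multiplied by bin number.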

Variants of: B1
Test: protein stability index of a GFP-peptide fusion (GPS, HEK-293T) (PSI 1-6); higher = more stable
Settings: c terminus: a fixed tail appended
In the case of YIIQQGGWGFVFSLESEEEEYPGI, the protein stability index is reported as 2.42.
YIIQQGGNGTVFSLESEEEEYPGI gave a protein stability index of 3.09.
For YIIQQGGWGTVFSLESEEEEYPGM, the protein stability index was 1.53.
In the case of YIIQQGGWGTVFNLESEEEEYPGI, the protein stability index is reported as 3.23.
In the case of VIIQQGGWGTVFSLESEEEEYPGI, the protein stability index is reported as 2.57.
Work on YIIQQWGWGTVFSLESEEEEYPGI yielded a protein stability index of 1.14.
Variant YIIQQGGWGTVFSLESAEEEYPGI has a protein stability index of 1.23.
For YIIQQGGWGTLFSLESEEEEYPGI, the protein stability index was 1.36.
With YIIQQGGWGTVRSLESEEEEYPGI the protein stability index was 1.83.
Variant YIIQQGYWGTVFSLESEEEEYPGI has a protein stability index of 3.6.
Variant YIIQQVGWGTVFSLESEEEEYPGI has a protein stability index of 1.23.
Work on YIIQQGGWGTVFSLESEEEEYPGV yielded a protein stability index of 1.78.
Variant YIIQQGGWGTVFSLESEEERYPGI has a protein stability index of 2.98.
YIIQQGGWGTVFSLESEEEEYPPI showed a protein stability index of 1.97.
YIIQQGGWGTVFSLESEEEEYPGK gave a protein stability index of 1.75.
Variant YIIQQGGWGTVFSLFSEEEEYPGI has a protein stability index of 2.92.
For YIIQQGGWGTVFSLESEEEIYPGI, the protein stability index was 3.47.
With YIIQQGGWGTVFSLKSEEEEYPGI the protein stability index was 1.27.
With YIIQQGGWGTVFSLESENEEYPGI the protein stability index was 2.86.
Work on YIIRQGGWGTVFSLESEEEEYPGI yielded a protein stability index of 2.35.
Variant YIIQWGGWGTVFSLESEEEEYPGI has a protein stability index of 2.16.
Variant YIIQQGGWGTVFSLESEEEEYPKI has a protein stability index of 2.61.
For YIIQQGGWGTVPSLESEEEEYPGI, the protein stability index was 1.58.
With YIIQQGGWGTVFSLESEEPEYPGI the protein stability index was 1.82.
Work on YIIQQGGWGTVFSLQSEEEEYPGI yielded a protein stability index of 2.31.
For YIIQQGGWGTVFSLESDEEEYPGI, the protein stability index was 1.19.
Variant YIIQQDGWGTVFSLESEEEEYPGI has a protein stability index of 1.42.
In the case of YIIQQGGWGTDFSLESEEEEYPGI, the protein stability index is reported as 2.67.
YIIQQGGWGTVISLESEEEEYPGI gave a protein stability index of 1.64.
Work on YIIQQGGEGTVFSLESEEEEYPGI yielded a protein stability index of 3.31.
For YIIQQGGWGTVFSLENEEEEYPGI, the protein stability index was 1.83.
RIIQQGGWGTVFSLESEEEEYPGI showed a protein stability index of 3.87.
With YIIQQGGWGTVFSLESESEEYPGI the protein stability index was 2.56.
In the case of YIIQQGGWGTVDSLESEEEEYPGI, the protein stability index is reported as 2.35.
In the case of YIIQQGGAGTVFSLESEEEEYPGI, the protein stability index is reported as 2.02.
Variant YIIQQGGWGTVFSLESFEEEYPGI has a protein stability index of 2.7.
With YIIQQGGWGTVFSLESEEEEYVGI the protein stability index was 1.37.
Work on YIIQQGGWGTVFLLESEEEEYPGI yielded a protein stability index of 1.24.
With YIIQQGGWGTVFSLESEEEETPGI the protein stability index was 1.21.
In the case of YIIQQGGFGTVFSLESEEEEYPGI, the protein stability index is reported as 2.83.
Work on YIIQQGGWGTVNSLESEEEEYPGI yielded a protein stability index of 1.56.
Variant YIIQQGGWGTVFSLESEEYEYPGI has a protein stability index of 2.41.
YIIQQGPWGTVFSLESEEEEYPGI gave a protein stability index of 1.58.
In the case of YIIQQGGLGTVFSLESEEEEYPGI, the protein stability index is reported as 1.99.
Variant YIIQQGGWGTVHSLESEEEEYPGI has a protein stability index of 1.75.
In the case of YIIQQGGWGTVFYLESEEEEYPGI, the protein stability index is reported as 1.71.
YIIQQGQWGTVFSLESEEEEYPGI showed a protein stability index of 2.85.
Variant YIIQQGGWGTVFSLESEEEEEPGI has a protein stability index of 1.64.
With YIIQQGGWGTVFSLESEECEYPGI the protein stability index was 3.36.
Variant YIIQQGRWGTVFSLESEEEEYPGI has a protein stability index of 1.73.
Work on YIIQQFGWGTVFSLESEEEEYPGI yielded a protein stability index of 1.97.
Work on YIIQQGGWGTVFSLEYEEEEYPGI yielded a protein stability index of 2.61.
YIIQQGGWGTVFSLESEEEEYIGI gave a protein stability index of 3.56.
In the case of YMIQQGGWGTVFSLESEEEEYPGI, the protein stability index is reported as 2.86.
For YIIQQGGWGTVFSRESEEEEYPGI, the protein stability index was 1.87.
Variant YIIQQGGWGTVFSQESEEEEYPGI has a protein stability index of 1.78.
In the case of YIIQQGKWGTVFSLESEEEEYPGI, the protein stability index is reported as 2.06.
Variant YIIQQGGWGTVFGLESEEEEYPGI has a protein stability index of 1.74.
For YIIQQGGWGTVQSLESEEEEYPGI, the protein stability index was 1.24.
For YIEQQGGWGTVFSLESEEEEYPGI, the protein stability index was 2.63.
In the case of YIFQQGGWGTVFSLESEEEEYPGI, the protein stability index is reported as 2.27.
Work on YIIQQGGWVTVFSLESEEEEYPGI yielded a protein stability index of 3.32.
YIIQQGGWSTVFSLESEEEEYPGI gave a protein stability index of 1.68.
Work on YIIQQSGWGTVFSLESEEEEYPGI yielded a protein stability index of 1.73.
YIIQQGGWLTVFSLESEEEEYPGI gave a protein stability index of 3.44.
YIIQQGGMGTVFSLESEEEEYPGI showed a protein stability index of 1.88.
In the case of YIIQQGGWGTVFSLESEEEEYPYI, the protein stability index is reported as 2.18.
YIIQQGGWGTVFSLESEEEKYPGI gave a protein stability index of 2.15.
YISQQGGWGTVFSLESEEEEYPGI showed a protein stability index of 2.04.
Work on YIIQQGHWGTVFSLESEEEEYPGI yielded a protein stability index of 2.14.
In the case of YIIQQGGWGTQFSLESEEEEYPGI, the protein stability index is reported as 1.86.
With YHIQQGGWGTVFSLESEEEEYPGI the protein stability index was 2.9.
Variant QIIQQGGWGTVFSLESEEEEYPGI has a protein stability index of 3.18.
Work on YIIQQGGWGTVFSLESEEEEYPVI yielded a protein stability index of 1.85.
Variant YIIQQGGWGTVFSLESPEEEYPGI has a protein stability index of 4.07.
YIIQQGGTGTVFSLESEEEEYPGI gave a protein stability index of 2.84.
In the case of YIIQQGGWGTVFSLESEEEEYPGL, the protein stability index is reported as 1.82.
Work on YIIQQGGWGTVFSLESEEEEIPGI yielded a protein stability index of 1.59.
YIIQQGGWGTWFSLESEEEEYPGI showed a protein stability index of 1.42.
For YIIQQGGWGTVFSLESEELEYPGI, the protein stability index was 2.41.
Work on YIIQQGGWGTVFSLESEEEEYPGH yielded a protein stability index of 1.63.
In the case of YIIQQGGWGTVFSLESEEEEQPGI, the protein stability index is reported as 2.33.
In the case of YIIQQGGWGTIFSLESEEEEYPGI, the protein stability index is reported as 1.78.
In the case of DIIQQGGWGTVFSLESEEEEYPGI, the protein stability index is reported as 3.47.
Variant YIIQQGGWGTVFSLESEEEPYPGI has a protein stability index of 2.87.
With YIIQQGGWGTVFSLESEEDEYPGI the protein stability index was 1.19.
YIIQQGGWGTVFSLESEEEELPGI showed a protein stability index of 2.11.
YIIQQGGWGTVFSLESEEEGYPGI gave a protein stability index of 1.51.
Variant YIIQQGGWGTGFSLESEEEEYPGI has a protein stability index of 3.31.
Work on YIIQQGGWGTVFSLESEHEEYPGI yielded a protein stability index of 1.85.
In the case of YIIQQGGWGTVFSVESEEEEYPGI, the protein stability index is reported as 1.98.
YIIQQGGWGTVFDLESEEEEYPGI gave a protein stability index of 2.72.
With YIIQQGGWGTVFSLESEEEEYAGI the protein stability index was 2.
In the case of YIIQQGGVGTVFSLESEEEEYPGI, the protein stability index is reported as 1.53.
